# Experimental data published in publication PMC8012516 (2021).
# B1: antibacterial peptide DP7 (peptide)
# peptide: VQWRIRVAVIRK
# Tests used:
# [1] = biological target: S-receptor-binding domain (RBD)-Fc of SARS-CoV-2 (SARS-CoV-2, UniProt P0DTC2); assay: SPR
# [2] = biological target: angiotensin-converting enzyme 2 (UniProt Q9BYF1 18-805); assay: SPR
# angiotensin-converting enzyme 2, sequence (Q9BYF1 18-740): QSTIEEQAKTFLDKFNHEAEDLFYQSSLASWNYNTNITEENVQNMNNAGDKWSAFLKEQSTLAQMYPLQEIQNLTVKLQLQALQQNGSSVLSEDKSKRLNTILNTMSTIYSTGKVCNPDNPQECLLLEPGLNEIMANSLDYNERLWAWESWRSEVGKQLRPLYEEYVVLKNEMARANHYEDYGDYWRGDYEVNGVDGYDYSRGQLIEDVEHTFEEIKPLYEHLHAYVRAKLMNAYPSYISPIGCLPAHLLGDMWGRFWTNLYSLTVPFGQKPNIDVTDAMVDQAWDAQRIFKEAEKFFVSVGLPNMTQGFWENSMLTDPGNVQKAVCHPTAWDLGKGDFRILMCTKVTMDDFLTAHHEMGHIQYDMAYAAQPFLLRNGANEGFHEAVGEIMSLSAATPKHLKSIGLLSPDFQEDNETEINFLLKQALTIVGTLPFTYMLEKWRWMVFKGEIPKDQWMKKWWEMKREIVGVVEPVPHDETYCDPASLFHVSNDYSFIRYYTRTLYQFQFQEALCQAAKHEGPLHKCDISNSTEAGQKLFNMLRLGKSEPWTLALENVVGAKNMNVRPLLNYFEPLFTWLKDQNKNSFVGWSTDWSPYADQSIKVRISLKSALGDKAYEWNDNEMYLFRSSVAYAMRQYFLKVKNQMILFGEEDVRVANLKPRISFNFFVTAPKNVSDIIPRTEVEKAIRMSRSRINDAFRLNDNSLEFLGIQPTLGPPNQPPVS
binder,measurement,setting,value
B1,koff,[1],0.00501 s⁻¹
same,koff,[2],0.00918 s⁻¹
